Assays:
[1] = target: T1, human CD28 on PCD28.1.s2.1 cells (Homo sapiens, UniProt P10747); experiment: Flow cytometry binding to cells expressing cell-surface CD28; assay type: cell-based; details: on ice
T1 construct: expressed in transfected cells; host or cells: PCD28.1.s2.1 (PE30.2 murine T-cell hybridoma transfected with pHbactCd28neo)
Method: Non-adherent CD28 expressing cells (PCD28.1.s2.1) were used for this assay format. PCD28.1.S2.1 cells were created by transfection of PE30.2 cells [D. Emilie et al., Eur. J. Immunol., 19:1619-1624 (1989)] with a vector for expression of human CD28 [D. Couez et al., Molecular Immunology, 31:47-57 (1994)]. All incubations were carried out on ice. Unlabelled CD80- and CD86-Igαtp or CD80 and CD86-Ig were incubated with the cells in binding buffer consisting of PBS w/o Ca+2/Mg+2, 0.2% bovine serum albumin and 0.1 % sodium azide. After washing twice in binding buffer, bound fusion proteins were detected with a 1:2000 dilution of a goat anti-human polyclonal antibody labeled with FITC (Flourescein isothiocyanate, Southern Biotech). Following two additional washes in binding buffer, the cells were resuspended in binding buffer and analyzed on a FACSort analyzer (Becton-Dickinson) using a 488 nm laser.

[2] = test system: murine T-cell hybridoma cell lines expressing human CD28 (PCD28.1.s2.1, DCL27CD28wt.s2); experiment: IL-2 production by CD28 T-cell hybridomas (CTLL-2 bioassay); assay type: cell-based
Description: The CD80- and CD86-Igαtp proteins were compared to the corresponding CD80 and CD86-Ig proteins to determine their ability to stimulate cells expressing human CD28 using two murine T-cell hybridoma cell lines expressing human CD28, PCD28.1.s2.1 and DCL27CD28wt.s2. The PCD28.1.s2.1 cell line was described in Example 1, part 3. The DCL27CD28wt.s2 cell line was created by transfection of the DC27 cell line [F. Pages et al., Nature, 369:327-329 (1994); F. Pages et al., J. Biol. Chem., 271(16):9403-9409 (1996)] with the same CD28 expression vector used for the PCD28.1.s2.1 cells [D. Couez et al., Molecular Immunology, 31:47-57 (1994)]. These cell lines were examined for their ability to produce IL-2 in response to activation with CD80- and CD86-Ig in comparison with the corresponding Igαtp fusion proteins. 96-well plates were coated with or without a CD3 antibody together with the CD80 and CD86 fusion proteins. This was accomplished by first incubating the plates with a previously determined suboptimal concentration of hamster […] CD3 antibody (MAb 145-2C11, Boerhinger-Mannheim Biochemicals) for two hours at room temperature (RT) or with just buffer alone, washing the plates with PBS, adding goat anti-human Ig heavy chain (GAH-IgHc, Sigma Chemical Co.) for an additional two hours at RT, washing again and coating with different concentrations of the CD80 or CD86 fusion protein for 16-18 hours at 4° C., washing again, and finally blocking for 30 min. with 0.2% BSA-PBS. […] T cells were incubated in the wells for 24 hours at 37° C., and supernatants were collected and evaluated for IL-2 levels in a standard CTLL-2 bioassay [S. M. Gillis et al., J. Immunol., 120:2027 (1978)]. […] OD570 readings were converted into ng/ml of IL-2 based on a standard curve generated by treating cells with known concentrations of IL-2.
(§1) IL-2 promoter activity and IL-2 levels were measured similarly to that described in parts A and B above, except that proliferation of the reader CTLL-2 cells was measured by ^3H-thymidine incorporation.

CD28-Ig = target: T2, CD28-Ig (Homo sapiens, UniProt P10747); experiment: Isothermal titration calorimetry, binding to CD28-Ig in solution
T2 construct: native leader and extracellular domain peptide of CD28 and CD80 were grafted onto a human IgG1 heavy chain Fc region; human IgG1 Fc (hinge/CH2/CH3); made in house; host or cells: CHO cells
Description: The solution binding properties of the hexameric and standard Ig fusion proteins of CD80 and CD86 were compared using isothermal titration calorimetry, essentially as described previously for other proteins [K. Johanson et. al., J. Biol. Chem, 270: 9459-9471 (1995), and references therein].
This lower affinity for CD28 than for CTLA4 is in agreement with other reports [P. S. Linsley et. al., Immunity 1: 793-801 (1994)].

[3] = test system: PCD28.1.S2.1 cells (human CD28, lacZ fused to the IL-2 promoter); experiment: FDG assay for IL-2 promoter activity (lacZ reporter); assay type: cell-based, murine; details: added directly to PC28.1.s2.1 cells in solution (FIG. 20A)
Method: A second assay for agonist activity measured induction of IL-2 promoter activity, rather than production of IL-2 protein. The PCD28.1.S2.1 cells described above also contain lacZ fused to the IL-2 promoter. Thus, the PCD28.1.S2.1 cell line provides a convenient system for measuring IL-2 promoter activity upon CD28-mediated T cell simulation. T cells were activated as described above for the CTLL-2 assay, spun down, resuspended in 50 μl of media+50 μl of PBS, lysed with 10 μl of 20% Triton X-100, and supplemented with 25 μl of 10 mM FDG (Molecular Probes), a fluorogenic substrate for b-galactosidase. Hydrolysis of FDG first yields fluorescein monogalactoside (FMG) and then the highly fluorescent product fluorescein. Cell lysates were incubated with FDG for 60 min., and the levels of fluorescence were measured by Fluoroscan (MTX Lab Systems, Inc).
as §1

binding to CD28 positive cells [1]: no binding | interaction with CD28-Ig in solution by calorimetry (CD28-Ig): not detected
B1: CD86-Ig: binding protein/Fc construct for CD86 with human IgG1 Fc (protein)
chain: APLKIQAYFNETADLPCQFANSQNQSLSELVVFWQDQENLVLNEVYLGKEKFDSVHSKYMGRTSFDSDSWTLRLHNLQIKDKGLYQCIIHHKKPTGMIRIHQMNSELSVLANFSQPEIVPISNITENVYINLTCSSIHGYPEPKKMSVLLRTKNSTIEYDGIMQKSQDNVTELYDVSISLSVSFPDVTSNMTIFCILETDKTRLLSSPFSIELEDPQPPPDHEPKSADKTHTCPPCP
modifications: left off: a dimerising Fc or GST
IL-2 production ([2]; added directly to PC28.1.s2.1 cells in solution, CTLL-2 3H-thymidine incorporation (FIG. 20B)): no stimulation | IL-2 response ([2]; cross-linked with GAH antibody, no CD3 antibody): did not give a response | IL-2 production ([2]; soluble protein, absence of CD3 crosslinking): no activity | IL-2 promoter activity [3]: no stimulation
